Twelve molecules from patent US20220031822A1 (Janssen / Centocor, published 2022) can be followed below.

In the assay the target is T1, human BCMA (B cell maturation antigen) (human, UniProt Q02223 1-184).
T1 construct: whole, on cells; also called hBCMA; TNFRSF17
T1 sequence (looked up): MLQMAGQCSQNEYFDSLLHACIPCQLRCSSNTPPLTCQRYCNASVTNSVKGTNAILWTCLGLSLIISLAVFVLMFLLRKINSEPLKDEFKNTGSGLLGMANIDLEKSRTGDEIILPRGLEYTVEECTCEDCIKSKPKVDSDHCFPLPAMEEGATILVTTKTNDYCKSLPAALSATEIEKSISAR
Kind of assay: flow cytometry, FN3 domain titration on HEK293F cells transiently expressing human BCMA, anti-His Alexa-488 detection, PRISM one-site specific binding fit. Further details: Bmax: unit not given here. As to the method: 50 uL secondary antibody in FACS buffer was added to the wells. Anti-His mAb was added at a 1/100 dilution to all of the wells except for the FACS buffer only negative control wells. The plates were incubated on ice for 1 hr. Afterwards, cells were collected and combined from two wells from all four plates to check cell count and viability using Trypan blue on the Vi-Cell system. The cell count was about 67,500/well at 96.6% viability. The cell count of the control cells that were kept on ice for comparison was 1×10⁶/mL at 95.1% viability.
After 1 hr of staining, the plates were spun at 1200 rpm for 5 min at 4° C. to pellet the cells. Buffer was discarded by inverting the plates, and 100 uL FACS buffer were added to the wells. The FACS buffer wash was repeated two more times. The plates were spun at 1200 rpm for 5 min at 4° C. to pellet the cells, and buffer was discarded by inverting the plates.
Cells were resuspended in 30 uL Intellicyt buffer (FACS buffer, 0.1% Pluronic Acid, 1 mM EDTA, SytoX Red Live/Dead Stain at a 1:1000 dilution) and mixed gently by vortexing the plates. The plates were kept on ice and read on an Intellicyt plate reader. Cells were gated in the following order: (a) cells, (b) single cells, (c) viable cells. The Geometric Mean of Alexa 488 channel was calculated, and the percentage of viable single cells was calculated.

Changes are numbered by the printed parent chain.

B1: B03 BCMA-specific FN3 domain (designed binder)
chain: MLPAPKNLVVSRITEDSARLSWTAPDAAFDSFPIRYIETLIWGEAIWLDVPGSERSYDLTGLKPGTEYTVVIDGVKGGGRSQPLVATFTT
notes: Detected with an anti-His mAb, so the protein tested carried a His tag
Regarding B1, the Bmax came to 60900 and the Kd turned out to be 8.7 nM.

B2: F11 BCMA-specific FN3 domain (designed binder)
chain: B1 chain with I13V, T69V, G79D, R80H, Q82K
notes: as for B1
On to B2, for which the Bmax was 58200 and binding was characterised by a dissociation constant (Kd) of 4.2 nM.

B3: D10 BCMA-specific FN3 domain (designed binder)
chain: B1 chain with D49Y, T87S
notes: as for B1
Take B3: the Bmax came out at 57800 and binding was put at a Kd of 4.9 nM.

B4: C08 BCMA-specific FN3 domain (designed binder)
chain: B1 chain with D49Y, D73S, G79E, R80S, Q82Y, V85I, T87A
notes: as for B1
Consider B4, for which the Bmax is 57900 and binding was put at a Kd of 23 nM.

B5: A08 BCMA-specific FN3 domain (designed binder)
chain: B1 chain with T69A, D73T, G79R, R80F, Q82S, T87S
notes: as for B1
As to B5, the Bmax was found to be 101000 and binding was put at a Kd of 3000 nM.

B6: A12 BCMA-specific FN3 domain (designed binder)
chain: MLPAPKNLVVSRITEDSARLSWTAPDAAFDSFTIKYIERATWGEAIWLNVPGSERSYDLTGLKPGTEYVVLINGVKGGPESWPLIAHFTT
notes: as for B1
Turning to B6, the Bmax was found to be 51400 and the Kd was found to be 22 nM.

B7: G11 BCMA-specific FN3 domain (designed binder)
chain: MLPAPKNLVVSRITEDSARLSWTAPDAAFDSFWIRYVERLVWGEAIHLHVPGSERSYDLTGLKPGTEYVVVISGVKGGWESTPLVAPFTT
notes: as for B1
B7 registered a Bmax of 60700 and a Kd of 1.6 nM.

B8: E09 BCMA-specific FN3 domain (designed binder)
chain: MLPAPKNLVVSRVTEDSARLSWTAPDAAFDSFRIRYVEVIAWGEAIWLVVPGSERSYDLTGLKPGTEYVVVIDGVKGGKTSIPLIAHFTT
notes: as for B1
As for B8, the Bmax is 73600 and the dissociation constant (Kd) is 130 nM.

B9: E02 BCMA-specific FN3 domain (designed binder)
chain: MLPAPKNLVVSRVTEDSARLSWTAPDAAFDSFVIVYSEPDVCGEAIVLTVPGSERSYDLTGLKPGTEYWVRIAGVKGGDFSRPLSAIFTT
notes: as for B1
In the case of B9, the Bmax was found to be 56700 and binding was characterised by a dissociation constant (Kd) of 6.5 nM.

B10: F01 BCMA-specific FN3 domain (designed binder)
chain: MLPAPKNLVVSRVTEDSARLSWTAPDAAFDSFIIVYRENIETGEAIVLTVPGSERSYDLTGLKPGTEYYVQIAGVKGGNISFPLSAIFTT
notes: as for B1
For B10, the Bmax was 51600 and binding was put at a Kd of 520 nM.

B11: G10 BCMA-specific FN3 domain (designed binder)
chain: B10 chain with T23I
notes: as for B1
B11 gave a Bmax of 72600 and a Kd of 76 nM.

B12: D08 BCMA-specific FN3 domain (designed binder)
chain: B10 chain with R12H, G61D
notes: as for B1
In turn, B12 displayed a Bmax of 61200 and a Kd of 230 nM.
